Literature values, collected in publication PMC7463749.

Tests used:
BB2R (Homo sapiens) = BB2R (Homo sapiens) (UniProt P30550)
BB1R (Homo sapiens) = BB1R (Homo sapiens) (UniProt P28336)
Chain of UniProt P28336 (P28336 whole entry): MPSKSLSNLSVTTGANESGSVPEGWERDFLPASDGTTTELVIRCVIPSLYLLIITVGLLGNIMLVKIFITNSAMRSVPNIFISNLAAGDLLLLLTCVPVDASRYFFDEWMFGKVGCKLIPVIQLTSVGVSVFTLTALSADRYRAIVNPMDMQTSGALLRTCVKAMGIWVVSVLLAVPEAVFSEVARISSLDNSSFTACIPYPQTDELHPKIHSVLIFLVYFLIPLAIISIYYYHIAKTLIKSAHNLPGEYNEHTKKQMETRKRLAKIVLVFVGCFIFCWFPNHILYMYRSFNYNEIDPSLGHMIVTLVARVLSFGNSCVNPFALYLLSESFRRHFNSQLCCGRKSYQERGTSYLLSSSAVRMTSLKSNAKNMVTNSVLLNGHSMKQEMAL

Chain of UniProt P30550 (P30550 whole entry): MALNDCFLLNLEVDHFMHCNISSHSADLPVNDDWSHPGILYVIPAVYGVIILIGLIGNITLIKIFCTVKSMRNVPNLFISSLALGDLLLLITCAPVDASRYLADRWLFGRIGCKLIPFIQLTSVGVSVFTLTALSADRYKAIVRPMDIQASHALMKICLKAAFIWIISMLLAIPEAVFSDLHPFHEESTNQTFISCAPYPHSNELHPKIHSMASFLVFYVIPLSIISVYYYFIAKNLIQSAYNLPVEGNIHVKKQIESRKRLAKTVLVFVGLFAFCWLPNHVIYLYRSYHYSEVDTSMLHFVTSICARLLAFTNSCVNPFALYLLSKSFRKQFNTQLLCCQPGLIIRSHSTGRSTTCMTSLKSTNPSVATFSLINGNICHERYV

Ki (BB2R (Homo sapiens)) [nM] | Ki (BB1R (Homo sapiens)) [nM] | Substance
0.19 |  | gastrin-releasing peptide (from UniProt P07492)
 | 0.052 | neuromedin B (from UniProt P08949)
